Experiments:
[1] = target: C-terminally truncated PTEN (t-PTEN, aa 1-378) (human) (UniProt P60484)
[2] = target: C-terminally truncated PTEN (t-PTEN, aa 1-378) (human) (UniProt P60484); remark: listed apart in the source

inhibition of t-PTEN soluble PIP3 (diC6-PIP3) phosphatase activity by the peptide in trans, malachite green phosphate release, IC50 [1]: 1000 nM
extent of inhibition of the lipid phosphatase activity of t-PTEN by 4p-25mer with soluble PIP3 substrate [2]: > 95%
Substance: synthetic C-tail tetraphosphorylated peptide (aa 379-403, 4p-25mer) (from UniProt P60484 379-403)

Source: PMC3707082
